Data: the supplement of paper PMC12855868

B1: library; numbered along this chain (parent)
chain: MAAAGGARLLRAASAVLGGPAGRWLHHAGSRAGSSGLLRNRGPGGSAEASRSLSVSARARSSSEDKITVHFINRDGETLTTKGKVGDSLLDVVVENNLDIDGFGACEGTLACSTCHLIFEDHIYEKLDAITDEENDMLDLAYGLTDRSRLGCQICLTKSMDNMTVRVPETVADARQSIDVGKTS

Variants of: B1
Assay: scaled log2 fold change in cell abundance, elesclomol vs control (0 = silent mean, 1 = nonsense mean) (scaled log2 ratio); higher = higher viability under elesclomol (loss of FDX1 cuproptosis function)
Settings: glucose 10 mM
Protocol: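 Deep mutational scan of full-length human FDX1: a pooled saturation-mutagenesis ORF library (every residue 2-184 mutated to all 19 amino acids plus stop, and silent codons where available) was expressed by lentivirus in FDX1-knockout ABC1 (14 days) or HEK293T (11 days) cells grown with elesclomol (ES) or DMSO control. Variant abundance came from ORF sequencing. The log2 fold change (ES vs control, mean of duplicates) was centred on the silent-variant mean (0) and scaled to the nonsense-variant mean (1). Higher values mean greater viability under ES, i.e. loss of FDX1 function in cuproptosis.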

[1] = with ABC1 FDX1 KO, elesclomol 5 nM, 14 days
[2] = with HEK293T FDX1 KO, elesclomol 40 nM, 11 days
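Note: variant abundance is its share of total variant reads in each endpoint sample, from next-generation sequencing of the integrated ORF PCR-amplified out of genomic DNA.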

| Variant | scaled log2 fold change [1] | scaled log2 fold change [2] |
| --- | --- | --- |
| G45E | 0.346 | 1.07 |
| G45F | -0.17 | -0.167 |
| G45L | 0.411 | -0.007 |
| G45H | 0.0762 | 0.865 |
| G45R | 0.363 | -0.475 |
| G45S | 0.0305 | -0.567 |
| G45Y | 0.16 | 0.922 |
| L53S | -0.175 | 0.73 |
| L53G | -0.239 | -1.17 |
| L53C | 0.0732 | -0.0888 |
| L53N | 0.146 | – |
| L53I | -1.25 | – |
| L53V | 0.281 | -0.11 |
| L53Q | -0.164 | – |
| L53P | 0.118 | – |
| L53W | 0.155 | 0.498 |
| L53H | 0.262 | -0.0475 |
| L53A | 0.205 | 0.346 |
| L53F | 0.298 | -0.0243 |
| L53D | -0.0291 | – |
| L53K | 0.299 | 0.00452 |
| L53R | 0.0529 | -0.455 |
| L53Y | -0.194 | -0.569 |
| L53M | 0.133 | 0.406 |
| L53E | 0.206 | -0.803 |

| Variant | scaled log2 fold change [1] | scaled log2 fold change [2] |
| --- | --- | --- |
| L53T | 0.163 | -0.488 |
| A47V | 0.764 | 0.63 |
| A47K | 0.89 | 0.778 |
| A47I | 0.83 | 0.523 |
| A47R | 0.994 | 1.12 |
| A47S | 0.89 | 0.276 |
| A47L | 0.835 | 0.437 |
| A47G | 0.844 | 0.78 |
| A47T | 0.83 | 0.802 |
| A47H | 0.813 | 1.05 |
| A47W | 0.856 | 0.727 |
| A47Q | 0.722 | 0.93 |
| A47Y | 0.8 | 0.534 |
| A47M | 0.779 | 0.799 |
| A47N | 0.833 | 1.56 |
| A47P | 0.733 | 0.555 |
| A47E | 0.691 | 0.694 |
| A47F | 0.852 | 1.03 |
| A47D | 0.728 | 0.746 |
| A47C | 0.788 | 1.53 |
| R41V | -0.196 | -0.0931 |
| R41Y | -0.195 | -0.051 |
| R41W | 0.107 | 0.227 |
| S50Y | -0.231 | 0.499 |
| S50W | -0.149 | – |

| Variant | scaled log2 fold change [1] | scaled log2 fold change [2] |
| --- | --- | --- |
| S50P | -0.659 | – |
| S50E | 0.344 | 0.116 |
| S50G | 0.758 | – |
| S50I | 0.293 | -1.28 |
| S50K | -0.433 | – |
| S50D | -0.421 | -0.999 |
| S50C | 0.19 | 0.37 |
| S50H | 0.126 | 0.0217 |
| S50A | -0.353 | 0.141 |
| S50T | 0.208 | – |
| S50M | -0.234 | – |
| S50N | 0.219 | -0.357 |
| S50L | -0.847 | – |
| S50R | -0.0286 | 0.0212 |
| P43E | 0.224 | 0.236 |
| P43H | 0.442 | -0.548 |
| P43M | 0.182 | 0.0394 |
| P43A | -0.0498 | 1.29 |
| P43S | -0.443 | -0.3 |
| P43N | 0.14 | 1.24 |
| P43C | -0.0655 | 0.841 |
| P43W | -0.19 | 0.313 |
| P43Q | 0.274 | -0.32 |
| P43T | 0.0182 | -0.259 |
| P43F | -0.0201 | 0.822 |

| Variant | scaled log2 fold change [1] | scaled log2 fold change [2] |
| --- | --- | --- |
| P43K | 0.0332 | 0.445 |
| P43R | 0.273 | 0.259 |
| P43G | 0.283 | 0.825 |
| P43D | -0.289 | -0.259 |
| P43I | 0.392 | -0.356 |
| P43L | 0.34 | 1.08 |
| P43Y | 0.138 | 0.846 |
| P43V | 0.149 | 0.888 |
| G44I | 0.034 | 0.323 |
| G44H | -0.319 | – |
| G44Q | 0.137 | 0.433 |
| G44K | 0.187 | -0.0828 |
| G44A | 0.246 | 2.06 |
| G44C | -0.366 | 0.858 |
| G44D | -0.0132 | -0.461 |
| G44Y | 0.198 | -0.79 |
| G44W | 0.253 | 0.857 |
| G44E | 0.197 | 1.12 |
| G44S | 0.141 | -0.291 |
| G44T | -0.238 | 0.0578 |
| G44R | 0.286 | 0.0773 |
| G44P | -0.094 | 0.309 |
| G44V | -0.00617 | -0.478 |
| G44N | 0.0836 | -0.289 |
| G44F | -0.255 | -0.00392 |

| Variant | scaled log2 fold change [1] | scaled log2 fold change [2] |
| --- | --- | --- |
| G44L | -0.1 | 0.155 |
| G44M | 0.13 | 0.703 |
| S52H | -0.197 | 0.41 |
| S52G | 0.447 | -0.133 |
| S52F | 0.556 | – |
| S52I | -0.0467 | -0.248 |
| S52V | -0.785 | -0.177 |
| S52M | 0.212 | -0.953 |
| S52L | 0.253 | -0.651 |
| S52D | 0.202 | 0.946 |
| S52Y | 0.285 | 0.0679 |
| S52W | 0.257 | -0.162 |
| S52T | -0.921 | -0.112 |
| S52P | -0.128 | – |
| S52C | 0.431 | -0.0215 |
| S52E | 0.648 | 0.0946 |
| S52Q | 0.212 | 1.17 |
| S52R | 0.143 | -1.18 |
| S52K | 0.174 | -1.31 |
| S52N | -0.0586 | -0.095 |
| S52A | 0.665 | 0.164 |
